Reference: patent publication US20240043540A1 (Innovent, published 2024)

T1: recombinant human 2Ig-B7H3 protein (human, UniProt Q5ZPR3 29-466)
T1 construct: Bought soluble recombinant protein; also called ACRO Catalog No. B73-H52E2
T1 sequence: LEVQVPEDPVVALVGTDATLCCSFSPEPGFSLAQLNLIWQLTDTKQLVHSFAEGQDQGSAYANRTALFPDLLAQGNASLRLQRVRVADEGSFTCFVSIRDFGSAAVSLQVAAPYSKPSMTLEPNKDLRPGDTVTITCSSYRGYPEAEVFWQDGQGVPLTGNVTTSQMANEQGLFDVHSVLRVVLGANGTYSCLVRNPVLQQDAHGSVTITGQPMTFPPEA

T2: recombinant human 4Ig-B7H3 protein (human, UniProt Q5ZPR3 29-461)
T2 construct: also called human B7H3 protein; SINO BIOLOGICAL Catalog No. 11188-H08H
T2 sequence: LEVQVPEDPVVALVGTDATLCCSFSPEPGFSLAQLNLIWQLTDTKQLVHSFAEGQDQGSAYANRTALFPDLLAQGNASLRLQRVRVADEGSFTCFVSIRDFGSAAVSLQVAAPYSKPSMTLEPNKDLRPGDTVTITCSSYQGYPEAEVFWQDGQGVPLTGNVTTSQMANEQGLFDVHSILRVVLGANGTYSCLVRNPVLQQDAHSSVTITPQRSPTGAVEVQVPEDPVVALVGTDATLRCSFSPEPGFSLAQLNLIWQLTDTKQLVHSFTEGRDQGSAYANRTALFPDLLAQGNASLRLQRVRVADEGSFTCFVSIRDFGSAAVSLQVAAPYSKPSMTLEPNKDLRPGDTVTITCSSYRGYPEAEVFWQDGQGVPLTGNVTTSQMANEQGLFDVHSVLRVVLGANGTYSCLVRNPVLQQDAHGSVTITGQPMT

T3: recombinant cynomolgus monkey B7H3 protein (cynomolgus monkey, UniProt Q7TPB4 26-248 (rat entry))
T3 construct: also called SINO BIOLOGICAL Catalog No. 90806-C02H-50
T3 chain: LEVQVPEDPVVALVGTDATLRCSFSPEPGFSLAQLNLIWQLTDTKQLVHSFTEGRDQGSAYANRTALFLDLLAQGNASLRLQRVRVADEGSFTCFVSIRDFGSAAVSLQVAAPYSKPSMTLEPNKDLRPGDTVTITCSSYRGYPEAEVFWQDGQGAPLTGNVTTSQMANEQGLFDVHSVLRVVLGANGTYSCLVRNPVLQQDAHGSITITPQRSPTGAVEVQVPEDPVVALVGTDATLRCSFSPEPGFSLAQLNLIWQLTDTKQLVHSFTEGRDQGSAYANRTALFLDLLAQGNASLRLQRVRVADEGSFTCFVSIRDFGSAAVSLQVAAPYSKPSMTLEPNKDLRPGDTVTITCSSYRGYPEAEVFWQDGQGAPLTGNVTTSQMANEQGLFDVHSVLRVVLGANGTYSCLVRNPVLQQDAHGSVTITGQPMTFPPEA

T4: cynomolgus monkey B7H3 expressed on CHO cells (CHO-cynoB7H3) (cynomolgus monkey, UniProt Q7TPB4 26-316 (rat entry))
T4 chain: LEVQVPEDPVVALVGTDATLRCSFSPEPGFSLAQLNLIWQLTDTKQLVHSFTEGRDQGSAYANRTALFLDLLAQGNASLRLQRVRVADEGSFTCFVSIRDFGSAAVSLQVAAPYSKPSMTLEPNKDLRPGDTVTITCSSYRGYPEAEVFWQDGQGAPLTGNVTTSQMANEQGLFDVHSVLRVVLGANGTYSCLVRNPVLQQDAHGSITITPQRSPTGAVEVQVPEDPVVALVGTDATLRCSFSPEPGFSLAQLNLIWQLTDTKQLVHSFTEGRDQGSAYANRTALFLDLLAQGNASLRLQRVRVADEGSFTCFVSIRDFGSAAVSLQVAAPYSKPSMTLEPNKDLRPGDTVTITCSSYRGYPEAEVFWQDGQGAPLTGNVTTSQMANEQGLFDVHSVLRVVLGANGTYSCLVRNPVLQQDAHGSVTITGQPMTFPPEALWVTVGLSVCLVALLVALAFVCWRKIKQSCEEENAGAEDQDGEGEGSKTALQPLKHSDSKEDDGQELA

T5: human 2Ig-B7H3 overexpressed on CHO-S cells (CHOS-hB7H3-2Ig) (human, UniProt Q5ZPR3 29-534)
T5 construct: also called cells overexpressing human 2Ig-B7H3
T5 sequence: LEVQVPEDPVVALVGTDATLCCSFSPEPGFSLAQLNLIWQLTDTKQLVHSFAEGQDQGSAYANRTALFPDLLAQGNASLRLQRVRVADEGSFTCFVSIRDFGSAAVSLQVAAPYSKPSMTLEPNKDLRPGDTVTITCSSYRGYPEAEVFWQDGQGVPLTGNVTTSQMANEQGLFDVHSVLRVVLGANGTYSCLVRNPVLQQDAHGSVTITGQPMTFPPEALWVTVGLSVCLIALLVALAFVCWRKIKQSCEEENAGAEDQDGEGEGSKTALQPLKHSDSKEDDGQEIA

T6: human 4Ig-B7H3 overexpressed on CHO-S cells (CHOS-hB7H3-4Ig) (human, UniProt Q5ZPR3 29-534)
T6 construct: The entry includes the signal peptide; also called CHO-hB7H3-4Ig; cells overexpressing human 4Ig-B7H3
T6 sequence: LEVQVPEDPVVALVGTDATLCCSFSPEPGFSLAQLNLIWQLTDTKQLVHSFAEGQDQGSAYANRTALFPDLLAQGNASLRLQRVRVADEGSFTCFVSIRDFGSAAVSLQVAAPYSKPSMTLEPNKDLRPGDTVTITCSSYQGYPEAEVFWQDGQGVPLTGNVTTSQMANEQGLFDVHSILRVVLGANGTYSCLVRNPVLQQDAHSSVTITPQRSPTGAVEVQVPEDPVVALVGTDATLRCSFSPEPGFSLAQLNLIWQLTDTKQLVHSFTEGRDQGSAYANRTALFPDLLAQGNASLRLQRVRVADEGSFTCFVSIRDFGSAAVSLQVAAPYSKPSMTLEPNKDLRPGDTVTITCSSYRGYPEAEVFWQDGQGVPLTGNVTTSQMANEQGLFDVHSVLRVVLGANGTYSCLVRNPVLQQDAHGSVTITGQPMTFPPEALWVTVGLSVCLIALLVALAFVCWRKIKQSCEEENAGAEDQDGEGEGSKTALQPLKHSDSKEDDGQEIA

B1: Ch19A2 chimeric antibody (antibody, human IgG1, kappa, V domains shown)
VH: EVQLQQSGAELVRPGASVKLSCKTSGYIFTSYWIHWIKQRSGQGLEWIARIYPGTDSTFYNEKFKGRATLTADKSSSTVYLQLNSLKSEDSAVYFCHFITASDWYFDVWGAGTTVTVSS
VL: DIVLTQSPAIMSASPGEKVTLTCSVSSSVNSNYLYWYQQKPGSSPKLWIYGTSNLASGVPARFSGSGSGPSYSLTISSMEAEDAASYFCYQWSSYPFTFGSGTKLEIKR
B2: 19A2 (hybridoma clone antibody) (antibody, V domains shown)
VH: B1 VH
VL: DIVLTQSPAIMSASPGEKVTLTCSVSSSVNSNYLYWYQQKPGSSPKLWIYGTSNLASGVPARFSGSGSGPSYSLTISSMEAEDAASYFCYQWSSYPFTFGSGTKLEIK
B3: Ch20G5 chimeric antibody (antibody, human IgG1, kappa, V domains shown)
VH: EVQLQQSVPELVKPGASVKISCKTSGYTFTEYIMHWVKQSHGKNLEWIGGINPNNGGTTYNQKFKDKATLTVDKSSSTAYMELHNLTSEDSAVYYCTRRTPPWHFAVWGAGTSLTVSS
VL: DIVLTQSPTIMSASPGEKVTMTCSASSSVSYIHWYQQKSGTSPKRWIFDTSRLASGVPARFSGSGSGTSYSLTISSMEAEDAATYYCQQWSSAPLTFGTGTTLELKR
B4: Hz19A2 humanized antibody (antibody, human IgG1, kappa, V domains shown)
VH: QVQLVQSGAEVKKPGASVKVSCKASGYIFTSYWIHWVRQAPGQGLEWMGRIYPGTESTFYNEKFKGRVTMTRDTSTSTVYMELSSLRSEDTAVYYCHFITASDWYFDVWGQGTLVTVSS
VL: EIVLTQSPATLSLSPGERATLSCSVSSSVQSNYLYWYQQKPGQAPRLLIYGTSNLASGIPARFSGSGSGTDFTLTISSLEPEDFAVYYCYQWSSYPFTFGQGTKLEIKR
B5: MGA271 (positive control antibody) (antibody, V domains shown)
VH: EVQLVESGGGLVQPGGSLRLSCAASGFTFSSFGMHWVRQAPGKGLEWVAYISSDSSAIYYADTVKGRFTISRDNAKNSLYLQMNSLRDEDTAVYYCGRGRENIYYGSRLDYWGQGTTVTVSS
VL: DIQLTQSPSFLSASVGDRVTITCKASQNVDTNVAWYQQKPGKAPKALIYSASYRYSGVPSRFSGSGSGTDFTLTISSLQPEDFATYYCQQYNNYPFTFGQGTKLEIK
notes: also called Enoblituzumab
B6: Hz20G5 humanized antibody (antibody, human IgG1, kappa, V domains shown)
VH: QVQLVQSGAEVKKPGASVKVSCKASGYTFTEYIMHWVRQAPGQRLEWMGGINPGTGGTTYNQKFKDRVTITVDTSASTAYMELSSLRSEDTAVYYCTRRTPPWHFAVWGQGTLVTVSS
VL: DIQLTQSPSFLSASVGDRVTITCSASSSVSYIHWYQQKPGKAPKRWIYDTSRLASGVPSRFSGSGSGTEFTLTISSLQPEDFATYYCQQWSSAPLTFGGGTKVEIKR

What was measured:
[1] = biological target: T1, recombinant human 2Ig-B7H3 protein; experiment: bio-layer interferometry (ForteBio), antibody loaded on sensor, antigen in solution
Procedure: (§1) The equilibrium dissociation constant (KD) for binding of the antibodies of the present invention to human B7H3 was determined by bio-layer interferometry (ForteBio). The ForteBio affinity assay was conducted according to the method (Estep, P et al., High throughput solution Based measurement of antibody-antigen affinity and epitope binding. mAbs, 2013.5(2): 270-8) known in the art.
(§2) Briefly, AMQ (Pall, 1506091) (for sample detection) or AHQ (Pall, 1502051) (for positive control detection) sensors were equilibrated offline in an assay buffer for 30 min, and were equilibrated online for 60 s to establish a baseline. The purified antibodies obtained as described above were loaded online onto an AHQ sensor (ForteBio) for the ForteBio affinity assay. The sensor with the loaded antibodies was then exposed to the antigens (including human 4Ig-B7H3, human 2Ig-B7H3 (ACRO, Catalog No. B73-H52E2) and cynomolgus monkey B7H3 (SINO BIOLOGICAL, Catalog No. 90806-C02H-50)) before transferring the sensor to the assay buffer for dissociation rate measurement. The KD values were analyzed using ForteBio analysis software.

[2] = biological target: T2, recombinant human 4Ig-B7H3 protein; experiment: as above
Procedure: as §1, §2

[3] = biological target: T3, recombinant cynomolgus monkey B7H3 …; experiment: as above
Procedure: as §1, §2

[4] = biological target: T2, recombinant human 4Ig-B7H3 protein; experiment: bio-layer interferometry (ForteBio), hybridoma antibody
[5] = biological target: T3, recombinant cynomolgus monkey B7H3 …; experiment: as above
[6] = biological target: T4, cynomolgus monkey B7H3 expressed on CHO …; experiment: flow cytometry, hybridoma supernatant on CHO-cynoB7H3 cells
[7] = biological target: T5, human 2Ig-B7H3 overexpressed on CHO-S …; experiment: FACS (flow cytometry, MFI) on CHO-S cells overexpressing human 2Ig-B7H3, PE-conjugated anti-human Fc detection; panel 'Cell-level affinity of CHOS hB7H3(2Ig)'
Procedure: (§3) 1) CHOS-hB7H3-4Ig, CHOS-hB7H3-2Ig, and CHOS-cyno B7H3 cells were diluted with a PBS solution to 2×10⁶ cells/mL, and added to a U-bottom 96-well plate at 100 μL/well. Three-fold serially diluted antibodies were added.
(§4) 2) The above mixture was incubated on ice for 30 min. The cell suspension was centrifuged at 400 g for 5 min to remove the supernatant, and the cells were washed with a PBS solution to remove the unbound antibodies. 100 μL of the solution of PE-conjugated anti-human Fc antibody (SouthernBiotech) diluted at a ratio of 1:200 was added to each well, and the cells were incubated in the dark on ice for 30 min. Then the cell suspension was centrifuged at 400 g for 5 min to remove the supernatant. The cells were washed with PBS twice to remove the unbound PE-conjugated anti-human Fc antibody. Then the cells were resuspended with 100 μL of PBS, and the binding of the antibody to cells was assayed by FACS.

[8] = biological target: T1, recombinant human 2Ig-B7H3 protein; experiment: bio-layer interferometry (ForteBio), as in Example 3
Procedure: as §2
(§5) The binding affinity of the humanized antibodies obtained in Example 4 for the antigens (human B7H3 and cynomolgus monkey B7H3) was determined by ForteBio assay as described in Example 3, which was expressed as an equilibrium dissociation constant (KD).

[9] = biological target: T2, recombinant human 4Ig-B7H3 protein; experiment: as above
Procedure: as §2, §5

[10] = biological target: T3, recombinant cynomolgus monkey B7H3 …; experiment: as above
Procedure: as §2, §5

[11] = biological target: T6, human 4Ig-B7H3 overexpressed on CHO-S …; experiment: FACS (flow cytometry, MFI) on CHO-S cells overexpressing human 4Ig-B7H3, PE-conjugated anti-human Fc detection; panel 'Cell-level affinity of CHOS hB7H3(4Ig)'
Procedure: as §3, §4

Row | Binder | Kd [1] [nM] | Kd [2] [nM] | Kd [3] [nM] | Kd [4] [nM] | Kd [5] [nM] | binding result [6] | EC50 [7] [nM] | Kd [8] [nM] | Kd [9] [nM] | Kd [10] [nM] | EC50 [11] [nM]
1 | B1 | 5.74 | 0.362 | 0.59 | – | – | – | – | – | – | – | –
2 | B2 | – | – | – | 0.987 | 0.977 | binds | – | – | – | – | –
3 | B3 | 3.18 | 0.236 | 0.713 | – | – | – | – | – | – | – | –
4 | B4 | – | – | – | – | – | – | 138 | 10.4 | 0.601 | 0.968 | 8.51
5 | B5 | 187 | 0.636 | 1.66 | – | – | – | 100 | 782 | 0.939 | 1.87 | 8.54
6 | B6 | – | – | – | – | – | – | 7.54 | 6.3 | 0.371 | – | 6.28
